From article PMC9788556, “Nanobodies against Pfs230 block Plasmodium falciparum transmission” (Biochemical Journal, 2022) come the findings set out here.

B4: Pfs230 Pro-D1D2 (aa 532–889) (domain or fragment, Plasmodium falciparum, UniProt P68874 532-889, looked up)
chain: DGENVIKIIRSVLQSGALPSVGVDELDKIDLSYETTESGDTAVSEDSYDKYASNNTNKEYVCDFTDQLKPTESGPKVKKCEVKVNEPLIKVKIICPLKGSVEKLYDNIEYVPKKSPYVVLTKEETKLKEKLLSKLIYGLLISPTVNEKENNFKEGVIEFTLPPVVHKATVFYFICDNSKTEDDNKKGNRGIVEVYVEPYGNKINGCAFLDEDEEEEKYGNQIEEDEHNEKIKMKTFFTQNIYKKNNIYPCYMKLYSGDIGGILFPKNIKSTTCFEEMIPYNKEIKWNKENKSLGNLVNNSVVYNKEMNAKYFNVQYVHIPTSYKDTLNLFCSIILKEEESNLISTSYLVYVSINEELN
notes: Pfs230 of Plasmodium falciparum (PF3D7_0209000), amino acids 532-889: a part of the prodomain and 6-cys domains D1 and D2; used untagged; source: Sf21 insect cells (baculovirus), secreted, purified (Ni-NTA, TEV cleavage, SEC); not shown: His8, N-terminal, cleaved
B14: Pfs230 D1D2 (aa 587–889) (domain or fragment, Plasmodium falciparum, UniProt P68874 587-889, looked up)
chain: TNKEYVCDFTDQLKPTESGPKVKKCEVKVNEPLIKVKIICPLKGSVEKLYDNIEYVPKKSPYVVLTKEETKLKEKLLSKLIYGLLISPTVNEKENNFKEGVIEFTLPPVVHKATVFYFICDNSKTEDDNKKGNRGIVEVYVEPYGNKINGCAFLDEDEEEEKYGNQIEEDEHNEKIKMKTFFTQNIYKKNNIYPCYMKLYSGDIGGILFPKNIKSTTCFEEMIPYNKEIKWNKENKSLGNLVNNSVVYNKEMNAKYFNVQYVHIPTSYKDTLNLFCSIILKEEESNLISTSYLVYVSINEELN
notes: used untagged; also called first two 6-cys domains of Pfs230; source: Sf21 insect cells (baculovirus), secreted, purified (Ni-NTA, TEV cleavage, SEC); not shown: His8, N-terminal, cleaved

What all share (details): both partners purified
In one assay the target is T1, Pfs230 D1 (aa 587–731) (Plasmodium falciparum 3D7, UniProt P68874).
T1 construct: used untagged; also called first 6-cys domain of Pfs230; source: Sf21 insect cells (baculovirus), secreted, purified (Ni-NTA, TEV cleavage, SEC); not shown: His8, N-terminal, cleaved
Description: BLI; Octet RED96e; monomeric nanobodies (5 µg/ml) on Ni-NTA sensor tips; untagged Pfs230 D1D2 6 to 200 nM or untagged Pfs230 D1 0.8 to 100 nM; PBS pH 7.4, 0.1% BSA, 0.05% TWEEN-20, 25°C; global 1 : 1 fit. A general note: Biolayer interferometry detects binding as a change in optical thickness at a sensor tip.

Assay [1] concerns the target B14. Description: far-Western, overlay or dot blot; western blot: 250 ng untagged Pfs230 D1D2 separated on a 4–12% Bis-Tris gel in reducing conditions, on PVDF, probed with 0.5 µg/ml nanobody overnight at 4°C.
In assay [2] the target is B4. Description: SEC; size shift assay: Pfs230 Pro-D1D2 or Pfs230 D1D2 incubated with nanobodies or LMIV230-01 at different molar ratios for 1 h on ice; SD200 3.2/300 column, 20 mM HEPES pH 7.5, 150 mM NaCl. On the technique in general: SEC sorts molecules by how far they enter the pores of the column.
Assay [3] addresses B14. The assay can be described thus: far-Western, overlay or dot blot; western blot: 250 ng untagged Pfs230 D1D2 separated on a 4–12% Bis-Tris gel in non-reducing conditions, on PVDF, probed with 0.5 µg/ml nanobody overnight at 4°C. For orientation: A western blot detects proteins with antibodies after separation by electrophoresis.
The next assay deals with T2, F5-Fc (alpaca).
T2 construct: as the VHH of m13 (nanobody F5); also called F5 nanobody-Fc fusion; source: HEK293, transient transfection, purified from supernatant (HiTrap PrismA, SEC)
The assay can be described thus: BLI; Octet RED96e; nanobody-Fc or LMIV230-01 (5 µg/ml) on anti-hIgG Fc capture sensor tips; untagged Pfs230 D1D2 or Pfs230 Pro-D1D2 3 to 100 nM or 94–3000 nM; PBS pH 7.4, 0.1% BSA, 0.05% TWEEN-20, 25°C; global 1 : 1 fit.

Assay [4] concerns the target B14. The assay can be described thus: BLI; Octet RED96e; monomeric nanobodies (5 µg/ml) on Ni-NTA sensor tips; untagged Pfs230 D1D2 6 to 200 nM or untagged Pfs230 D1 0.8 to 100 nM; PBS pH 7.4, 0.1% BSA, 0.05% TWEEN-20, 25°C; global 1 : 1 fit.
In another assay the target is T3, F10-Fc (alpaca).
T3 construct: as the VHH of m14 (nanobody F10); also called F10 nanobody-Fc fusion; source: HEK293, transient transfection, purified from supernatant (HiTrap PrismA, SEC)
The assay can be described thus: BLI; Octet RED96e; nanobody-Fc or LMIV230-01 (5 µg/ml) on anti-hIgG Fc capture sensor tips; untagged Pfs230 D1D2 or Pfs230 Pro-D1D2 3 to 100 nM or 94–3000 nM; PBS pH 7.4, 0.1% BSA, 0.05% TWEEN-20, 25°C; global 1 : 1 fit.

B1: nanobody A11 (VHH)
VHH: QVQLQESGGGLVQPGESLRLSCAASGRTSSSYAMGWFRQAPGKEREFVASISWSGGSTYYADSVKGRFTLSRDNAKNTVYLQMNSLKPEDTAVYYCAADGIFYSDYPLSVDDFHSWGQGTQVTVSS
notes: From a phage display library (pMES4) of an alpaca immunized with Pfs230 D1D2; source: E. coli WK6, periplasmic extract, purified (HisTrap)
For the molecule B1, the binding result with Pfs230 D1 (aa 587–731) and with Pfs230 D1D2 (aa 587–889) [1] was “binds” throughout.

B2: nanobody F5 (VHH)
VHH: QVQLQESGGGLVQPGGSLRLSCAASGFTLDRYAIGWFRQAPGKEREGVSCISSSDGSTYYADSVKGRFTISRDNAKNTVYLQMNSLKPEDTAVYYCARDHGPCTVLADILYDYGMDYWGKGTQVTVSS
notes: From a phage display library (pMES4) of an alpaca immunized with Pfs230 D1D2; also called anti-Pfs230 F5; source: E. coli WK6, periplasmic extract, purified (HisTrap)
As for B2, in assay [2], the “stoichiometry N” value was 1.

B3: nanobody G2 (VHH)
VHH: QVQLQESGGGLVQAGGSLRLSCAASGRTFSNYFMGWFRQAPGKEREFVAAVSWSGGSTYYADSVKGRLTISRDNAKNTVYLQMNSLKPEDTAVYYCAAGERYFPMEPRRGYDYWGQGTQVTVSS
notes: as for B1
With B3, the binding result with Pfs230 D1 (aa 587–731) and with Pfs230 D1D2 (aa 587–889) [3] was “binds” throughout.

B4: binding with F5-Fc was characterised by a dissociation constant (Kd) of 118 nM.

B5: nanobody E1 (VHH)
VHH: QVQLQESGGGLVQPGGSLRLSCAASGRTFSSYFMGWFRQAPGKGRVFVASISWSGGSTYYADSVKGRFTISRDNAENTVYLQMNSLKPEDTAVYYCAAGTRATPLDWASGMDYWGKGTQVTVSS
notes: as for B1
As for B5, the binding result with Pfs230 D1 (aa 587–731) and with Pfs230 D1D2 (aa 587–889) [4] was “binds” in each case.

B6: nanobody A10 (VHH)
VHH: QVQLQESGGGLVQAGSSLRLSCAASGGTFSNYAMGWFRQAPGKEREFVAAIGWSGGTYYTDSVEGRFTISRDNAKNTVYLQMNSLKPEDTAVYYCAAKRSGSSWSERGYDYWGQGTQVTVSS
notes: as for B1
Regarding B6, the binding result with Pfs230 D1 (aa 587–731) and with Pfs230 D1D2 (aa 587–889) [3] was “binds” in each case.

B7: nanobody D11 (VHH)
VHH: QVQLQESGGGLVQAGSSLRLSCAASGRTFSSYAMGWFRQAPGKEREFVAAIGWSGGTYYTDSVEGRFTISRDNAENTVYLQMNSLKPEDTAVYYCAAKASGSSWSERGYDYWGQGTQVTVSS
notes: as for B1
Consider B7, for which the binding result with Pfs230 D1 (aa 587–731) and in the assay with Pfs230 D1D2 (aa 587–889) [4] was “binds” throughout.

B8: nanobody G5 (VHH)
VHH: QVQLQESGGGLVQAGGSLRLSCAASGRTFNDYAMYWFRQAPGKEREFVADITWSGSSTYYADSVKGRFTISRDNAKNTVFLQMNSLKPEDTALYYCAADSRYYGIGIGTPRYWGQGTQVTVSS
notes: as for B1
On to B8, for which the binding result in the assay with Pfs230 D1 (aa 587–731) and in the assay with Pfs230 D1D2 (aa 587–889) [3] was “binds” each time.

B9: nanobody D6 (VHH)
VHH: QVQLQESGGGLVQAGDSLRLSCAASGRTFSSYFMGWFRQAPGKEREFVAAISWSGGSTYYADSVKGRFTISRDNVKNTVYLQMNSLEPEDAAVYYCAGGGSYYPMSPRNGMDYWGKGTQVTVSS
notes: as for B1
Take B9: the binding result in the assay with Pfs230 D1 (aa 587–731) and with Pfs230 D1D2 (aa 587–889) [1] was “binds” in each case.

B10: nanobody F10 (VHH)
VHH: QVQLQESGGGLVQAGGSLRLSCAASGRTFSDYFMGWFRQAPGKEREFVAAVSWSGGSTYYADSVKGRFTISRDNAKNTVFLQMNSLKPEDTAVYYCAGGGSYYPMSPYDGMDYWGKGTQVTVSS
notes: From a phage display library (pMES4) of an alpaca immunized with Pfs230 D1D2; also called anti-Pfs230 F10; source: E. coli WK6, periplasmic extract, purified (HisTrap)
With B10, in assay [2], the “stoichiometry N” value is 1.

B11: nanobody D1 (VHH)
VHH: QVQLQESGGGLVQAGDSLRLSCTASGRTFSNHAMGWFRQAPGKEREIVAVIFGTGRNSWYVDSVKGRFTISRDNAKNTVALQMNRLKPEDTAVYYCASGRTWYSGSSMAEYDYWGQGTQVTVSS
notes: Not to be confused with the D1 domain of Pfs230; From a phage display library (pMES4) of an alpaca immunized with Pfs230 D1D2; also called D1 (nanobody); source: E. coli WK6, periplasmic extract, purified (HisTrap)
In the case of B11, the binding result with Pfs230 D1 (aa 587–731) is given as “binds”.

B12: nanobody B4 (VHH)
VHH: QVQLQESGGGLVQPGGSLRLSCAASGFTLDYYGIGWFRQAPGKEREGVSCISSSDGSTYYADSVKGRFTISRDNAKNTVYLQMNSLKPEDTAVYYCAADLTGIGCTTAQAMGVIGDFGDFGSWGQGTQVTVSS
notes: as for B1
For the molecule B12, the binding result in the assay with Pfs230 D1 (aa 587–731) and in the assay with Pfs230 D1D2 (aa 587–889) [4] was “binds” in each case.

B13: nanobody E11 (VHH)
VHH: QVQLQESGGGLVQPGGSLRLSCAASGFTSDYYGIGWFRQAPGKEREGVACISSSDGSTYYADSVKGRSTISRDNAKNTVYLQMNSLKPEDTAVYYCAADLSGIGCTTAQAMDVIGDFGDFGSWGQGTQVTVSS
notes: as for B1
As for B13, the binding result with Pfs230 D1 (aa 587–731) and with Pfs230 D1D2 (aa 587–889) [4] was “binds” each time. In the case of B14, the dissociation constant Kd came out at 0.57 nM in the assay with F5-Fc and 0.13 nM in the assay with F10-Fc.

Broadly, the stoichiometry N is the number of molecules, sites or subunits per partner or assembly. What is called Kd is the constant that tells how readily two partners part at equilibrium.
